In the RNAGym collection of RNA variant scans (doi:10.1093/molbev/msab373) one finds reverse-splicing fitness data, which are given here for 83 variants.

The labels stand for the following.
B1: Azoarcus group I ribozyme (parent)
chain: GUGCCUUGCGCCGGGAAACCACGCAAGGGAUGGUGUCAAAUUCGGCGAAACCUAAGCGCCCGCCCGGGCGUAUGGCAACGCCGAGCCAAGCUUCGGCGCCUGCGCCGAUGAAGGUGUAGAGACUAGACGGCACCCACCUAAGGCAAACGCUAUGGUGAAGGCAUAGUCCAGGGAGUGGCGAAAGUCACACAAACCGG

In the data set the parent is B1. Put plainly: reverse-splicing fitness (ratio to wild type); higher = more active; in vitro selection; Mg2+ level not given. The procedure, abridged:
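An in vitro group I ribozyme library with randomized positions was T7-transcribed and gel-purified. In triplicate, 10 pmol RNA in EPPS pH 7.5 was reacted with 50 pmoles of a 30-nt RNA substrate for 1 h at 37 °C across several added MgCl2 levels (1–48 mM), then stopped with EDTA. Products were reverse transcribed from a substrate-complementary primer, PCR-amplified and sequenced (HiSeq 4000). Fitness is a variant's read proportion after selection over that before, normalised to wild type.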
In the case of A120U C150U C169U U176G, the reverse-splicing fitness was 0.00872. As to A120U C150U C169U U176C, the reverse-splicing fitness came to 0.083. In the case of A120U C150U C169U U176A it was 0.0605; in that of A145G C150A C169G U176C, 0.0517; in that of A145G C150A C169G U176A, 0.0321. In the case of A145G C150A C169G U176G it was 0.00527. In the case of A145U C150G C169A it was 0.0224; in that of A145U C150G C169G, 0.0415. Turning to A145U C150G C169U, the reverse-splicing fitness was 0.0635. As to A145G C150G C169G U176C, the reverse-splicing fitness was 0.0156. For A145G C150G C169G U176A, the reverse-splicing fitness was found to be 0.014.

In the case of A145G C150G C169G U176G, the reverse-splicing fitness stood at 0.00608. Consider A120U A145U C150U C169G, for which the reverse-splicing fitness came out at 0.166.

For A120U A145U C150U C169A, the reverse-splicing fitness amounted to 0.0103. Regarding A120U A145U C150U C169U, the reverse-splicing fitness was found to be 0.197. Regarding A145C C150A C169U, the reverse-splicing fitness was found to be 0.0286. In the case of A145C C150A C169A it was 0.0125; in that of A145C C150A C169G, 0.0208.

In the case of A120U A145G C169U U176C, the reverse-splicing fitness worked out at 0.126. With A120U A145G C169U U176G, the reverse-splicing fitness amounted to 0.0132.

As to A120U A145G C169U U176A, the reverse-splicing fitness was found to be 0.0927.

With A145C C150U C169A U176G, the reverse-splicing fitness worked out at 0.00607.

On to A145C C150U C169A U176A, for which the reverse-splicing fitness worked out at 0.0158. Consider A145C C150U C169A U176C, for which the reverse-splicing fitness was determined as 0.0196. Consider A120U A145U, for which the reverse-splicing fitness was found to be 0.89. Regarding A145U C150A C169A U176A, the reverse-splicing fitness is 0.014.

Turning to A145U C150A C169A U176G, the reverse-splicing fitness amounted to 0.00528. Take A145U C150A C169A U176C: the reverse-splicing fitness worked out at 0.0139. In the case of A120U C150A C169A U176C, the reverse-splicing fitness was 0.00333. For the variant A120U C150A C169A U176A, the reverse-splicing fitness was found to be 0.00376.

A120U C150A C169A U176G: the reverse-splicing fitness is 0.00205.

For the variant A145U C150U U176C, the reverse-splicing fitness turned out to be 0.816. In the case of A145U C150U U176G, the reverse-splicing fitness was 0.342. As to A145U C150U U176A, the reverse-splicing fitness worked out at 0.908. Regarding A120U A145U C150G C169U, the reverse-splicing fitness stood at 0.0429. Turning to A120U A145U C150G C169G, the reverse-splicing fitness was found to be 0.0307. As to A120U A145U C150G C169A, the reverse-splicing fitness was 0.00425. In the case of A145C C150A it was 0.321. Regarding A145C C150U, the reverse-splicing fitness came out at 0.695. In the case of A145C C150G it was 0.525; in that of A120U A145U C150U C169A U176C, 0.00496; in that of A120U A145U C150U C169A U176G, 0.00234.

For the variant A120U A145U C150U C169A U176A, the reverse-splicing fitness worked out at 0.00335.

On to A120U U176C, for which the reverse-splicing fitness was 0.678. As for A120U U176A, the reverse-splicing fitness came to 0.66. On to A120U U176G, for which the reverse-splicing fitness is 0.421. In the case of A145C C150G C169U U176G it was 0.00549; in that of A145C C150G C169U U176C, 0.0427. A145C C150G C169U U176A: the reverse-splicing fitness was 0.0183.

In the case of A120U A145U C150G C169G U176C, the reverse-splicing fitness was 0.00304. Consider A120U A145U C150G C169G U176G, for which the reverse-splicing fitness is 0.00208. Turning to A120U A145U C150G C169G U176A, the reverse-splicing fitness was determined as 0.00507.

In the case of A120U A145G C169G U176G, the reverse-splicing fitness turned out to be 0.00281.

Turning to A120U A145G C169G U176C, the reverse-splicing fitness was 0.0902. For the variant A120U A145G C169G U176A, the reverse-splicing fitness was determined as 0.0414. In the case of A120U A145U C150G it was 0.267; in that of A120U A145U C150U, 0.785; in that of A120U A145U C150A, 0.215. As to A120U A145U C150A C169A U176C, the reverse-splicing fitness was 0.00256. In the case of A120U A145U C150A C169A U176G it was 0.00156; in that of A120U A145U C150A C169A U176A, 0.0027; in that of A145U C150G U176C, 0.351. As to A145U C150G U176A, the reverse-splicing fitness turned out to be 0.326. Take A145U C150G U176G: the reverse-splicing fitness amounted to 0.108.

For the variant A145U C169A U176A, the reverse-splicing fitness worked out at 0.0255. A145U C169A U176G: the reverse-splicing fitness was found to be 0.00543. Turning to A145U C169A U176C, the reverse-splicing fitness was determined as 0.0523. Then A120U C169U, with 0.257; and A120U C169G, with 0.262; and A120U C169A, with 0.0174.

For A120U A145G C169A U176G, the reverse-splicing fitness is 0.00148. For the variant A120U A145G C169A U176C, the reverse-splicing fitness stood at 0.00664.

On to A120U A145G C169A U176A, for which the reverse-splicing fitness amounted to 0.00474.

Turning to A120U C150U U176G, the reverse-splicing fitness was found to be 0.222. Turning to A120U C150U U176C, the reverse-splicing fitness came to 0.556.

For A120U C150U U176A, the reverse-splicing fitness was determined as 0.62. Turning to A120U A145U C169A, the reverse-splicing fitness amounted to 0.0173. With A120U A145U C169G, the reverse-splicing fitness turned out to be 0.256. On to A120U A145U C169U, for which the reverse-splicing fitness amounted to 0.261. In the case of A145U C169G U176A it was 0.0717; in that of A145U C169G U176C, 0.133; in that of A145U C169G U176G, 0.00761.

For A120U A145U C169A U176C, the reverse-splicing fitness turned out to be 0.00507.
